Reference: US20180066015A1, “INHIBITORS OF GROWTH FACTOR ACTIVATION ENZYMES” (Washington University, published 2018)
Several values for one entry are separate records, joined by “and”; a condition that tells them apart may be missing. Identical values can stand only once. Like-named read-outs stand apart in the source and are kept apart here. Positions of bridges follow the written chain, without caps; N, C: chain ends. Primed or numbered codes have the meaning given here. No end group written: not given here. *: point of attachment. kbt‑6‑CONH‑4‑piperidine = ketobenzothiazole-6-CONH-4-piperidine (Kbt-4-piperidinylamide), O=C(NC1CCNCC1)c1ccc2nc(*)sc2c1; kbt‑6‑CONH‑4‑pyridine = ketobenzothiazole-6-CONH-4-pyridine (Kbt-4-pyridinylamide), O=C(Nc1ccncc1)c1ccc2nc(*)sc2c1; kbt‑6‑CONH‑Bn = ketobenzothiazole-6-CONH-benzyl (Kbt-benzylamide), O=C(NCc1ccccc1)c1ccc2nc(*)sc2c1; kbt‑6‑COOH = ketobenzothiazole-6-COOH, O=C(O)c1ccc2nc(*)sc2c1; kbt = C-terminal ketobenzothiazole, c1ccc2sc(*)nc2c1; Kbt = ketobenzothiazole, c1ccc2sc(*)nc2c1; kt = C-terminal ketothiazole, c1csc(*)n1; Fmoc = O=C(OCC1c2ccccc2-c2ccccc21)*; kt″ = ketothiazole, c1csc(*)n1

B1: Ac-TKLR(SEQ ID NO: 16)-kt (peptide)
peptide: Ac-TKLR-kt
SMILES: CC(=O)N[C@H](C(=O)N[C@@H](CCCCN)C(=O)N[C@@H](CC(C)C)C(=O)N[C@@H](CCCNC(=N)N)C(=O)c1nccs1)[C@@H](C)O
B2: H-WRLR(SEQ ID NO: 9)-Kbt (peptide)
peptide: H-WRLR-kbt
SMILES: CC(C)C[C@H](NC(=O)[C@H](CCCNC(=N)N)NC(=O)[C@@H](N)Cc1c[nH]c2ccccc12)C(=O)N[C@@H](CCCNC(=N)N)C(=O)c1nc2ccccc2s1
B3: Ac-KRLR(SEQ ID NO: 8)-Kbt (peptide)
peptide: Ac-KRLR-Kbt
SMILES: CC(=O)N[C@@H](CCCCN)C(=O)N[C@@H](CCCNC(=N)N)C(=O)N[C@@H](CC(C)C)C(=O)N[C@@H](CCCNC(=N)N)C(=O)c1nc2ccccc2s1
B4: Ac-NKLR(SEQ ID NO: 14)-kt (peptide)
peptide: Ac-NKLR-kt
SMILES: CC(=O)N[C@@H](CC(N)=O)C(=O)N[C@@H](CCCCN)C(=O)N[C@@H](CC(C)C)C(=O)N[C@@H](CCCNC(=N)N)C(=O)c1nccs1
B5: Ac-KHLR(SEQ ID NO: 2)-kt (peptide)
peptide: Ac-KHLR-{kt″}
SMILES: CC(=O)N[C@@H](CCCCN)C(=O)N[C@@H](Cc1c[nH]cn1)C(=O)N[C@@H](CC(C)C)C(=O)N[C@@H](CCCNC(=N)N)C(=O)c1nccs1
B6: Ac-SKLR(SEQ ID NO: 10)-Kbt-COOH (peptide)
peptide: Ac-SKLR-{kbt‑6‑COOH}
SMILES: CC(=O)N[C@@H](CO)C(=O)N[C@@H](CCCCN)C(=O)N[C@@H](CC(C)C)C(=O)N[C@@H](CCCNC(=N)N)C(=O)c1nc2ccc(C(=O)O)cc2s1
B7: Ac-SQLR(SEQ ID NO: 7)-kt (peptide)
peptide: Ac-SQLR-kt
SMILES: CC(=O)N[C@@H](CO)C(=O)N[C@@H](CCC(N)=O)C(=O)N[C@@H](CC(C)C)C(=O)N[C@@H](CCCNC(=N)N)C(=O)c1nccs1
B8: Ac-SKLR(SEQ ID NO: 10)-Kbt (peptide)
peptide: Ac-SKLR-kbt
SMILES: CC(=O)N[C@@H](CO)C(=O)N[C@@H](CCCCN)C(=O)N[C@@H](CC(C)C)C(=O)N[C@@H](CCCNC(=N)N)C(=O)c1nc2ccccc2s1
B9: Ac-FLFR(SEQ ID NO: 19)-Kbt (peptide)
peptide: Ac-FLFR-Kbt
SMILES: CC(=O)N[C@@H](Cc1ccccc1)C(=O)N[C@@H](CC(C)C)C(=O)N[C@@H](Cc1ccccc1)C(=O)N[C@@H](CCCNC(=N)N)C(=O)c1nc2ccccc2s1

What was measured:
[1] = target: Hepatocyte Growth Factor Activator (HGFA) serine protease domain, N-terminal His-tag, recombinant (Homo sapiens (Human)) (UniProt Q04756)
[2] = target: Hepatocyte Growth Factor Activator (HGFA) serine protease domain, N-terminal His-tag, recombinant (Homo sapiens (Human)) (UniProt Q04756); assay: fluorogenic inhibition assay
[3] = target: T1, Recombinant human hepsin (4776-SE-010, R&D Systems), activated (human, UniProt P05981); assay: fluorogenic inhibition assay
Method: (§1) Inhibitors (11-pt serial dilutions, 0-20 μM final concentration in reaction) were serially diluted in DMSO (2% DMSO final concentration) and then mixed with either recombinant serine protease domain of HGFA [Z. Han, P. K. Harris, D. E. Jones, R. Chugani, T. Kim, M. Agarwal, W. Shen, S. A. Wildman, J. W. Janetka, Acs Med Chem Lett 2014, 5, 1219-1224], matriptase (Charles Craik, UCSF) or hepsin* (#4776-SE-010, R&D Systems, Minneapolis, Minn.) in black 384 well plates (Corning #3575. Corning, N.Y.). […] The final substrate concentrations for all assays were at the Kₘ for the respective enzymes. Changes in fluorescence (excitation at 380 nm and emission at 460 nm) were measured at room temperature over time in a Biotek Synergy 2 plate reader (Winnoski, Vt.). Using GraphPad Prism version 6.04 software program, (GraphPad Software, San Diego, Calif., www.graphpad.com), a four parameter curve fit was used to determine the inhibitor IC₅₀s from a plot of the mean reaction velocity versus the inhibitor concentration. The IC₅₀ values represent the average of three separate experimental determinations.

[4] = target: T2, matriptase (Charles Craik, UCSF), recombinant (Homo sapiens (Human), UniProt Q9Y5Y6); assay: fluorogenic inhibition assay
T2 sequence: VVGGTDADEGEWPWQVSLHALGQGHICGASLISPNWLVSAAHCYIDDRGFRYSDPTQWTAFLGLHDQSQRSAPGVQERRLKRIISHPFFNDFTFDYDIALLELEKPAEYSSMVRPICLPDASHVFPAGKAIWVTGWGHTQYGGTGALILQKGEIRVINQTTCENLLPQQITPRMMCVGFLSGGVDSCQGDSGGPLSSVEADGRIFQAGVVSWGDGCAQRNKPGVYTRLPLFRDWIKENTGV
Method: as §1

[5] = target: Factor Xa; assay: selectivity inhibition assay
[6] = target: Trypsin; assay: selectivity inhibition assay
[7] = target: recombinant thrombin; assay: selectivity inhibition assay
[8] = target: T2, matriptase (Charles Craik, UCSF), …; assay: fluorogenic inhibition assay; remark: listed apart in the source
Method: as §1
(§2) Fluorescent inhibitor and chromogenic proteolytic assays were performed in general accordance with the procedures described in Example 4 for compounds prepared in Examples 5 and 6.

[9] = target: T1, Recombinant human hepsin (4776-SE-010, …); assay: fluorogenic inhibition assay; remark: listed apart in the source
Method: as §1, §2

Row | Binder | IC50 of enzyme inhibition [1] | Ki [2] [nM] | Ki [3] | Ki [4] | Ki [5] [nM] | Ki [6] [nM] | Ki [7] [nM] | Ki [8] [nM] | Ki [9] [nM]
1 | Ac-Leu-Leu-Arg-kt [Ac-LLR-kt] | 1480 nM | 253 | 2.29 nM | – | – | – | – | – | –
2 | B1 | 567 nM | 103 | 0.61 nM | 8.7 nM | – | – | – | – | –
3 | Ac-SKLR-{kbt‑6‑CO-Val-NH2} [Ac-SKLR(SEQ ID NO: 10)-Kbt-Val-NH2] | – | 13 | – | – | 385 | 0.34 | 4500 | 10.3 | 0.19
4 | B2 | – | 8.75 | – | – | 2.4 | 0.96 | 4890 | 3.79 | 0.12
5 | Ac-SKLR-{kbt‑6‑CONH‑4‑piperidine} [Ac-SKLR(SEQ ID NO: 10)-Kbt-4-piperidinylamide] | – | 7.7 | – | – | 447 | 0.41 | 2950 | 1.28 | 0.2
6 | B3 | – | 6 | – | – | 91.9 | 0.82 | > 20000 | 0.54 | 0.112
7 | H-Arg-Leu-Arg-kbt [H-RLR-kbt] | – | 83.1 | – | – | 56 | 0.13 | 8200 | – | 0.5
8 | Ac-KRLR-{Kbt-Benzyl‑3‑COOMe} [Ac-KRLR(SEQ ID NO: 8)-kbt-Benzyl-3-COOMe] | – | 7.76 | – | – | 14 | 0.04 | 85.4 | 1.8 | 0.36
9 | H-KQDRR-kt (lactam 1-3; also: 3:1 D/L diastereomers at the alpha keto carbon) [H-cyclo(KQD)RR-kt] | – | 5940 | – | 0.71 nM | – | – | – | – | –
10 | Ac-KRLR-Kbt (not fully specified) [Ac-KRLR(SEQ ID NO: 8)-Kbt-5-COOH] | – | 6.07 | – | – | 20.2 | 1.06 | 1940 | 5.14 | 0.37
11 | H-Trp-Leu-Arg-kbt [H-WLR-kbt] | – | 104 | – | – | 532 | 0.05 | 457 | – | 1.52
12 | Ac-SKLR (not fully specified (C-terminus)) [Ac-SKLR(SEQ ID NO: 10)-Kbt-Phe-NH2] | – | 17.3 | – | – | 544 | 0.27 | 3640 | 6.26 | 0.14
13 | B4 | 397 nM and 400 nM | 79 | 1.4 nM and 1.41 nM | 12 nM and 12.4 nM | – | – | – | – | –
14 | H-Trp-Leu-Arg-{kbt-Val-NH2} [H-WLR-kbt-Val-NH2] | – | 73.9 | – | – | 159 | 0.01 | 41 | 49.2 | 1.31
15 | B5 | 650 nM | 96 | 0.41 nM | 22.3 nM | – | – | – | – | –
16 | H-Arg-Leu-Arg-{kbt-Val-NH2} [H-RLR-kbt-Val-NH2] | – | 12.5 | – | – | 18 | 0.31 | 548 | 4.2 | 0.44
17 | B6 | – | 132 | – | – | 1250 | 0.03 | > 2000 | 54.8 | 0.173
18 | Ac-SKLR-{kbt‑6‑CONH‑Bn} [Ac-SKLR(SEQ ID NO: 10)-Kbt-benzylamide] | – | 9.1 | – | – | 190 | 0.05 | 2470 | 0.36 | 0.8
19 | Ac-SKLR-{kbt‑6‑CONH‑4‑pyridine} [Ac-SKLR(SEQ ID NO: 10)-Kbt-4-pyridinylamide] | – | 31.8 | – | – | 221 | 1.06 | 3430 | 3.95 | 0.14
20 | Ac-SKLR (not fully specified (C-terminus)) [Ac-SKLR(SEQ ID NO: 10)-Kbt-Trp-NH2] | – | 15.8 | – | – | 163 | 0.02 | 1230 | 3.74 | 0.098
21 | B7 | 180 nM | 182 | 0.34 nM | 9.2 nM | – | – | – | – | –
22 | Fmoc-Phe-Arg-kbt [Fmoc-FR-kbt] | – | 964 | – | – | 28.4 | 14.3 | > 2000 | 1280 | 778
23 | H-Leu-Leu-Arg-{kbt-Val-NH2} [H-LLR-kbt-Val-NH2] | – | 82.1 | – | – | 159 | 0.61 | 101 | – | 0.88
24 | Ac-KRLR-{Kbt-Benzyl‑4‑COOMe} [Ac-KRLR(SEQ ID NO: 8)-kbt-Benzyl-4-COOMe] | – | 5.85 | – | – | 9 | 0.05 | 20.9 | 0.98 | 0.26
25 | Fmoc-Leu-Arg-kbt [Fmoc-LR-kbt] | – | 450 | – | – | 410 | 19.8 | 995 | 425 | 115
26 | B8 | – | 33 | – | – | 1900 | 0.16 | > 20000 | 3.05 | 0.16
27 | B9 | – | 114 | – | – | 13.1 | 0.27 | > 20000 | 3.6 | 1.44
